The values that follow come from patent US20250074980A1 (BRIGHAM AND WOMEN S HOSPITAL, published 2025).

Positions count from the first letter of the chain named. Names may count otherwise.

Assay [1] concerns the target T1, CEACAM1 on transfected HeLa cells (human, UniProt P13688 35-526).
T1 construct: also called HeLa-CEACAM1; HeLa C1
T1 sequence: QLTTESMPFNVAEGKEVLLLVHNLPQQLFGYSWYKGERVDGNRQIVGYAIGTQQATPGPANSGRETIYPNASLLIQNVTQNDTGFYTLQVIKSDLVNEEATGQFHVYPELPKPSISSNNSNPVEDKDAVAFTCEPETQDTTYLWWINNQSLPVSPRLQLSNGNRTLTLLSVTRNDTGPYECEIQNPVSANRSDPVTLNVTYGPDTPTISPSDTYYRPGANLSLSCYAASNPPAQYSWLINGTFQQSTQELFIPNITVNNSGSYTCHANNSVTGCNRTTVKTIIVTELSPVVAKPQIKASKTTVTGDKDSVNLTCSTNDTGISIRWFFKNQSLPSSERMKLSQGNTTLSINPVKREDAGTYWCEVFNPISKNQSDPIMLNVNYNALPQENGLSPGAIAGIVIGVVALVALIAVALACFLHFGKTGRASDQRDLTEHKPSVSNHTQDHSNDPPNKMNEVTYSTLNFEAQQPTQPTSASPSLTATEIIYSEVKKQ
The assay can be described thus: flow cytometry, transfected HeLa. On the technique in general: In flow cytometry, cells or beads pass a laser one at a time.

The target of assay [2] is T2, CEACAM5 on transfected HeLa cells (human, UniProt P06731 35-685).
T2 construct: whole, on cells; also called HeLa-CEACAM5; HeLa C5
T2 sequence (looked up): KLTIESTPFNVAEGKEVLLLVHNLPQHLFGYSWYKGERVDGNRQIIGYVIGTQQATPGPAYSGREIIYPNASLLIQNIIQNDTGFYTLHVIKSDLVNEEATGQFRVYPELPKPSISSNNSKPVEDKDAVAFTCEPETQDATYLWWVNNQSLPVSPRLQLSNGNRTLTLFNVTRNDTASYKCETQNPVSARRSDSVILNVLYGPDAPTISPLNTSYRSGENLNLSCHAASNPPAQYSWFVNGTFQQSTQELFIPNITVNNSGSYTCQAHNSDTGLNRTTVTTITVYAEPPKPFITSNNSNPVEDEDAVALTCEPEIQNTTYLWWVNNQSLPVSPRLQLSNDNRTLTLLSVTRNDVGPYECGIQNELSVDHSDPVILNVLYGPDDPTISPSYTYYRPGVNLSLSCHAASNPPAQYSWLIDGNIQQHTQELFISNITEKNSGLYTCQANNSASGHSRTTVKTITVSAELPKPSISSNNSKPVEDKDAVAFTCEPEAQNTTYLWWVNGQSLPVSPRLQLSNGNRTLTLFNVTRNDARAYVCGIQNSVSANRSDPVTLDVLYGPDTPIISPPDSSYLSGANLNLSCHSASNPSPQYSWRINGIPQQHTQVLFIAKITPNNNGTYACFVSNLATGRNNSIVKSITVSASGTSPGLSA
The assay can be described thus: flow cytometry, transfected HeLa.

Assay [3] addresses T3, CEACAM6 on transfected HeLa cells (human, UniProt P40199 35-320).
T3 construct: whole, on cells; also called HeLa-CEACAM6; HeLa C6
T3 sequence (looked up): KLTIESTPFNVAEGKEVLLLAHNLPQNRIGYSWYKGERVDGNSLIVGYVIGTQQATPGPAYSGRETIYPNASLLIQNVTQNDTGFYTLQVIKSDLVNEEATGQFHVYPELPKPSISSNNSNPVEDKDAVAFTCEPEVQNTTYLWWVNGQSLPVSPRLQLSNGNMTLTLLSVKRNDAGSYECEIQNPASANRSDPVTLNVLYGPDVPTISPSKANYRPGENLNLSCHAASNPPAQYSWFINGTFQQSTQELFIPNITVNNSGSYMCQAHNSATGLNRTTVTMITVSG
The assay can be described thus: flow cytometry, transfected HeLa.

Assay [4] concerns the target T4, His-tagged CEACAM1 (human, UniProt P13688 35-428).
T4 construct: 45 kDa SPR analyte; also called CEACAM1-HIS; CEACAM1 analyte
T4 sequence: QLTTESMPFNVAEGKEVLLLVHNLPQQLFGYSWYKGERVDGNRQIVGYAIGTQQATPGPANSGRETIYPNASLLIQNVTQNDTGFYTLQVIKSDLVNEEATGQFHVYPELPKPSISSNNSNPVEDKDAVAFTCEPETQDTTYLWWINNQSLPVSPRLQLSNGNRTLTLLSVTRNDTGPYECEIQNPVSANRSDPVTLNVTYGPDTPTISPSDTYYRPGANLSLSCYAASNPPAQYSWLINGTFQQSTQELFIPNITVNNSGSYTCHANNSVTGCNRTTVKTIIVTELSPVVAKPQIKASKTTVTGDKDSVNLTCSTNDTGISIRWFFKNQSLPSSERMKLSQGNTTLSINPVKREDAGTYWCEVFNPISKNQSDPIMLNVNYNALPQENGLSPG
The assay can be described thus: SPR multi-cycle. The essentials: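 Surface plasmon resonance multi-cycle kinetics on a Biacore T200 at 25° C in HBS-P+ (pH 7.4). Purified antibody at 1 μg/ml was captured on a Series S Protein A chip to ~75 RU, with His-tagged CEACAM1 analyte in 2-fold dilutions from 200 to 3.125 nM or 100 to 1.5625 nM at 80 μl/min. Association was 50 or 150 seconds and dissociation 100 seconds, with glycine-HCl pH 1.5 regeneration. Kon, koff, Kd and relative KD come from these sensorgrams.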

Assay [5] addresses T5, GST-CEACAM1 (human, UniProt P13688 35-141, limits assumed).
T5 construct: also called human CEACAM1-GST protein
T5 sequence: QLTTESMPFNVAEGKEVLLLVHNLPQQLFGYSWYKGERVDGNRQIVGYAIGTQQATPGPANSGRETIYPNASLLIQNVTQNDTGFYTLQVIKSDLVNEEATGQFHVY
The assay can be described thus: scFv binding ELISA on GST-CEACAM1 coated at 1.0 µg/ml, anti-HIS6-HRP and TMB. How it is done:
The binding of affinity matured purified scFv to human CEACAM1 was analyzed using GST-CEACAM1. A Nunc Immuno MaxiSorp 96 well flat bottom microtitre plate was pre-coated with 1.0 μg/ml GST-CEACAM1 overnight at 4° C. The following day a two-fold dilution series of VH1/Vκ8 S29A parent scFv or test scFv (50 μg/ml to 0.8 μg/ml) in PBSB was incubated for 2 hours at RT on pre-coated ELISA plates. The binding of scFv was detected with an anti-HIS6-HRP antibody and TMB substrate. The reaction was stopped with 3 M HCl, absorbance read at 450 nm on a Dynex Technologies MRX TC II plate reader and the binding curves plotted. Parent scFv (VH1/Vκ8 S29A scFv) was included on each ELISA plate as a reference. An irrelevant scFv was included on at least one plate as a negative control. It was observed that a number of scFvs had improved binding to CEACAM1 compared to the parental VH1/Vκ8 S29A scFv. […] All 34 scFv variants were reformatted to whole IgG to provide greater accuracy with regard to purity and quantitation. The reformatting further allowed for an analysis of the avidity component of antibody binding, which is influenced by the bivalent nature of IgGs. As used herein, “avidity” is the measure of the strength of binding between an antigen-binding molecule (such as an antibody or antibody fragment thereof described herein) and the pertinent antigen.
(An ELISA detects its analyte on a solid surface through an enzyme-linked reagent.)

Assay [6] concerns the target T4, His-tagged CEACAM1. The assay can be described thus: SPR single-cycle, purified IgG captured. The method in brief:
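Purified IgG was captured on a Series S Protein A chip in a Biacore T200 at 25° C in HBS-P+ (pH 7.4), with His-tagged CEACAM1 as the analyte in single-cycle kinetics surface plasmon resonance. Kon, koff and Kd were fitted from signals corrected for the reference channel and blank runs, and relative KD was calculated against the parent antibody tested alongside.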

The target of assay [7] is T4, His-tagged CEACAM1. The assay can be described thus: SPR single-cycle, supernatant IgG captured. The essentials: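 IgG came from supernatants of HEK EBNA cells transiently transfected by PEI in 6-well plates and harvested 5-7 days later. Supernatants were quantified by ELISA and filtered. Single-cycle surface plasmon resonance was run on a Biacore T200 at 25° C in HBS-P+ (pH 7.4), with IgG captured on Protein A and His-tagged CEACAM1 as analyte. Kon, koff and Kd were fitted, and relative KD was calculated against the parent antibody assayed in the same experiment.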

The target of assay [8] is T6, CEACAM3 on transfected HeLa cells (human, UniProt P40198 35-252).
T6 construct: whole, on cells; also called HeLa-CEACAM3; HeLa C3
T6 sequence (looked up): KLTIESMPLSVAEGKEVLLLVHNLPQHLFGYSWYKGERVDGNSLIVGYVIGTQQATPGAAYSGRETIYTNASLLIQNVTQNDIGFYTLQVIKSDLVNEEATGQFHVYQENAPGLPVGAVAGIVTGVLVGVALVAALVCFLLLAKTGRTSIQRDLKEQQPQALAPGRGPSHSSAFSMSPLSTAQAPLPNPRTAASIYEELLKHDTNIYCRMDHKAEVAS
The assay can be described thus: flow cytometry, HeLa-CEACAM3 transfectants, % staining, stacked bars. From the text:
(§1) FIG. 11 illustrates the binding selectivity of different affinity-matured CEACAM1 antibodies. […] HELA cells were transfected with vector alone (HeLa-Neo) or vectors expressing CEACAM1, CEACAM3, CEACAM5, or CEACAM6, respectively, and stained with the indicated antibodies. […] MOPC=mouse IgG1 control antibody. Mouse antibodies as positive control for transfected CEACAM isoforms: Col-1=CEACAM3 and CEACAM5 antibody. 9A6=CEACAM6 antibody. T84.1=CEACAM cross-reactive antibody and T84.66=CEACAM5 antibody. Only 2nd FITC=No primary antibody, only secondary FITC conjugated antibody. […] Data for affinity-matured antibodies 9B3_8H3/Vκ8 S29A, 8H3_9B3/CP08_E05, and 8H3_9C2/CPO08_F05, as well as data for CEACAM8 antibody 80H3 were omitted from the FIG. due to an unusually high background signal.

Assay [9] has as its target T2, CEACAM5 on transfected HeLa cells. The assay can be described thus: flow cytometry, HeLa-CEACAM5 transfectants, % staining, stacked bars.
Description: as §1

The target in assay [10] is T3, CEACAM6 on transfected HeLa cells. The assay can be described thus: flow cytometry, HeLa-CEACAM6 transfectants, % staining, stacked bars.
Description: as §1

irrelevant IgG4 antibody: the relative amount of cells bound in assay [1] turned out to be 0.37; in [2], 1.02; in [3], 1.39.

B1: VH0/Vκ0 N26Q (antibody, IgG4, name in Kabat numbering, V domains shown)
VH: EVQLVESGGDLVKPGGSLKLACAASGFIFSSHGMSWVRQTPDKRLEWVATISSGGTYTYYPDSVKGRFTISRDNDKNTLYLQMNSLKSEDTAMYYCARHDFDYDAAWFAYWGQGTLVTVSS
VL: QIVLTQSPALMSASPGVKVTMTCSAQSSVSYMYWYRQKPRSSPKPWIYLTSNLASGVPARFSGSGSGTSYSLTISSMEAEDAATYYCQQWSSNPPTFGSGTKLEIK
notes: aglycosylated chimeric, IgG4 (S241P), kappa
By Kd is commonly meant a measure of binding affinity in units of concentration. Read a low Kd as tighter binding. One may read the koff as the first-order rate constant of dissociation. As usually defined, the kon is the rate constant with which the complex forms. Higher therefore signals fast association. In the case of B1, in [4], binding was put at a Kd of 198 nM, the koff worked out at 0.0299 s⁻¹, the association rate constant (kon) stood at 151000 M⁻¹ s⁻¹ and the “relative KD” value amounted to 1.89. The “relative amount of cells bound” value in assay [1] is 79.9. Also, the “relative amount of cells bound” value in assay [2] worked out at 15.5. The “relative amount of cells bound” value in assay [3] was 0.18.

B2: CP08C04 (scFv)
scFv, VH-linker-VL: EVQLLESGGGLVQPGGSLRLSCAASGFTFSSHGMSWVRQAPGKGLEWVATISSGGTYTYYPDSVKGRFTISRDNSKNTLYLQMNSLKAEDTAMYYCARHDFDYDAAWFAYWGQGTLVTVSSGGGGSGGGGSGGGGSEIVLTQSPATLSLSPGERATLSCRANSAVSYMYWYQQKPGQAPRPWIYLTSNRATGVPARFSGSGSGTDYTLTISSLEPEDFAVYYCQQWSSNPPTFGQGTKLEIK
notes: purified scFv form; the IgG form is m90
In general, EC50 (read off the curve) refers to the concentration giving half of the maximal effect. Low values mean a more potent agent, high ones a less potent agent. On to B2, for which, in assay [5], the 50% effective concentration (EC50 (read off the curve)) is roughly 10 µg/mL.

B3: CP09F03 (scFv)
scFv, VH-linker-VL: B2 scFv, VH-linker-VL with S30N, S31N
notes: purified scFv form; the IgG form is m63
As for B3, the “EC50 (read off the curve)” value in [5] was roughly 10 µg/mL.

B4: CP08H03/CP08E05 (antibody, IgG4, V domains shown)
VH: EVQLLESGGGLVQPGGSLRLSCAASGFIFSSHGMSWVRQAPGKGLEWVATISSGGTYTYYPDSVKGRFTISRDNSKNTLYLQMNSLKAEDTAMYYCARHDFDYFPYWFAHWGQGTLVTVSS
VL: EIVLTQSPATLSLSPGERATLSCRANSAVSYMYWYQQKPGQAPRPWIYLTSNRATGVPARFSGSGSGTDYTLTISSLEPEDFAVYYCQQWTTNPPTFGQGTKLEIK
notes: IgG4 (S241P), kappa
On to B4, for which, in assay [6], the Kd amounted to 110 nM, the koff was 0.008 s⁻¹, the kon was determined as 76000 M⁻¹ s⁻¹ and the “relative KD to parent” value turned out to be 4.5. Further, in [7], the Kd was 120 nM, the off-rate constant (koff) was determined as 0.0085 s⁻¹, the kon was 71000 M⁻¹ s⁻¹ and the “relative KD to parent” value was 4.6. In addition, the binding result in assay [8] is on record as “no binding”. Besides, the binding result in [9] is on record as “no binding”. Moreover, the binding result in assay [10] was “no binding”.
